# The supplement of paper PMC11246515
# ± gives the standard deviation of the averaged measurements.
# Assay: total protein half-life in vivo (active degradation + dilution); higher = more stable protein
# [1] = E. coli NCM3722 delta-clpP delta-lon delta-hslV, growth: N-lim chemostat, doubling time 6 h
# [2] = E. coli NCM3722 delta-clpP, growth: N-lim chemostat, doubling time 6 h
# [3] = E. coli NCM3722 delta-hslV, growth: N-lim chemostat, doubling time 6 h
# [4] = E. coli NCM3722 delta-lon, growth: N-lim chemostat, doubling time 6 h
# [5] = E. coli NCM3722 delta-smpB, growth: N-lim chemostat, doubling time 6 h
# [6] = wild type E. coli NCM3722, growth: C-lim chemostat, doubling time 3 h
# [7] = wild type E. coli NCM3722, growth: C-lim chemostat, doubling time 6 h
# [8] = wild type E. coli NCM3722, growth: C-lim chemostat, doubling time 12 h
# [9] = wild type E. coli NCM3722, growth: N-lim chemostat, doubling time 6 h
# [10] = wild type E. coli NCM3722, growth: P-lim chemostat, doubling time 6 h
# [11] = wild type E. coli NCM3722, growth: P-lim chemostat, doubling time 12 h
# [12] = wild type E. coli NCM3722, growth: N-lim chemostat, doubling time 12 h
Sequence,total protein half-life in vivo [1],total protein half-life in vivo [2],total protein half-life in vivo [3],total protein half-life in vivo [4],total protein half-life in vivo [5],total protein half-life in vivo [6],total protein half-life in vivo [7],total protein half-life in vivo [8],total protein half-life in vivo [9],total protein half-life in vivo [10],total protein half-life in vivo [11],total protein half-life in vivo [12]
MTAINRILIVDDEDNVRRMLSTAFALQGFETHCANNGRTALHLFADIHPDVVLMDIRMPEMDGIKALKEMRSHETRTPVILMTAYAEVETAVEALRCGAFDYVIKPFDLDELNLIVQRALQLQSMKKEIRHLHQALSTSWQWGHILTNSPAMMDICKDTAKIALSQASVLISGESGTGKELIARAIHYNSRRAKGPFIKVNCAALPESLLESELFGHEKGAFTGAQTLRQGLFERANEGTLLLDEIGEMPLVLQAKLLRILQEREFERIGGHQTIKVDIRIIAATNRDLQAMVKEGTFREDLFYRLNVIHLILPPLRDRREDISLLANHFLQKFSSENQRDIIDIDPMAMSLLTAWSWPGNIRELSNVIERAVVMNSGPIIFSEDLPPQIRQPVCNAGEVKTAPVGERNLKEEIKRVEKRIIMEVLEQQEGNRTRTALMLGISRRALMYKLQEYGIDPADV,5.23 ± 2.1 h,3.82 h,2.7 h,3.5 h,2.912 ± 0.0036 h,3.09 ± 0.26 h,5.56 ± 0.094 h,10.6 ± 2.5 h,3.16 h,4.99 ± 0.19 h,10.9 ± 1.7 h,
MTVSSHRLELLSPARDAAIAREAILHGADAVYIGGPGFGARHNASNSLKDIAELVPFAHRYGAKIFVTLNTILHDDELEPAQRLITDLYQTGVDALIVQDMGILELDIPPIELHASTQCDIRTVEKAKFLSDVGFTQIVLARELNLDQIRAIHQATDATIEFFIHGALCVAYSGQCYISHAQTGRSANRGDCSQACRLPYTLKDDQGRVVSYEKHLLSMKDNDQTANLGALIDAGVRSFKIEGRYKDMSYVKNITAHYRQMLDAIIEERGDLARASSGRTEHFFVPSTEKTFHRGSTDYFVNARKGDIGAFDSPKFIGLPVGEVVKVAKDHLDVAVTEPLANGDGLNVLIKREVVGFRANTVEKTGENQYRVWPNEMPADLHKIRPHHPLNRNLDHNWQQALTKTSSERRVAVDIELGGWQEQLILTLTSEEGVSITHTLDGQFDEANNAEKAMNNLKDGLAKLGQTLYYARDVQINLPGALFVPNSLLNQFRREAADMLDAARLASYQRGSRKPVADPAPVYPQTHLSFLANVYNQKAREFYHRYGVQLIDAAYEAHEEKGEVPVMITKHCLRFAFNLCPKQAKGNIKSWKATPMQLVNGDEVLTLKFDCRPCEMHVIGKIKNHILKMPLPGSVVASVSPDELLKTLPKRKG,4.77 ± 0.49 h,0.895 h,1.82 ± 0.064 h,2.74 ± 0.24 h,1.75 ± 0.024 h,1.911 ± 0.011 h,2.78 ± 0.12 h,3.03 ± 0.49 h,2.12 ± 0.058 h,2.13 ± 0.32 h,3.17 ± 0.38 h,2.47 ± 0.12 h
MSNPILSWRRVRALCVKETRQIVRDPSSWLIAVVIPLLLLFIFGYGINLDSSKLRVGILLEQRSEAALDFTHTMTGSPYIDATISDNRQELIAKMQAGKIRGLVVIPVDFAEQMERANATAPIQVITDGSEPNTANFVQGYVEGIWQIWQMQRAEDNGQTFEPLIDVQTRYWFNPAAISQHFIIPGAVTIIMTVIGAILTSLVVAREWERGTMEALLSTEITRTELLLCKLIPYYFLGMLAMLLCMLVSVFILGVPYRGSLLILFFISSLFLLSTLGMGLLISTITRNQFNAAQVALNAAFLPSIMLSGFIFQIDSMPAVIRAVTYIIPARYFVSTLQSLFLAGNIPVVLVVNVLFLIASAVMFIGLTWLKTKRRLD [P0AFQ2],6.67 ± 0.81 h,5.62 h,6.1 h,5.56 h,6.04 ± 0.15 h,,5.36 h,12.8 h,6.36 ± 0.5 h,,12.6 ± 0.43 h,12.5 ± 3.1 h
MRLSDYFPESSISVIHSAKDWQEAIDFSMVSLLDKNYISENYIQAIKDSTINNGPYYILAPGVAMPHARPECGALKTGMSLTLLEQGVYFPGNDEPIKLLIGLSAADADSHIGAIQALSELLCEEEILEQLLTASSEKQLADIISRG,,,,,,3.24 ± 0.38 h,4.03 h,8.65 h,,,,
MIPQISQAPGVVQLVLNFLQELEQQGFTGDTATSYADRLTMSTDNSIYQLLPDAVVFPRSTADVALIARLAAQERYSSLIFTPRGGGTGTNGQALNQGIIVDMSRHMNRIIEINPEEGWVRVEAGVIKDQLNQYLKPFGYFFAPELSTSNRATLGGMINTDASGQGSLVYGKTSDHVLGVRAVLLGGDILDTQPLPVELAETLGKSNTTIGRIYNTVYQRCRQQRQLIIDNFPKLNRFLTGYDLRHVFNDEMTEFDLTRILTGSEGTLAFITEARLDITRLPKVRRLVNVKYDSFDSALRNAPFMVEARALSVETVDSKVLNLAREDIVWHSVSELITDVPDQEMLGLNIVEFAGDDEALIDERVNALCARLDELIASHQAGVIGWQVCRELAGVERIYAMRKKAVGLLGNAKGAAKPIPFAEDTCVPPEHLADYIAEFRALLDSHGLSYGMFGHVDAGVLHVRPALDMCDPQQEILMKQISDDVVALTAKYGGLLWGEHGKGFRAEYSPAFFGEELFAELRKVKAAFDPHNRLNPGKICPPEGLDAPMMKVDAVKRGTFDRQIPIAVRQQWRGAMECNGNGLCFNFDARSPMCPSMKITQNRIHSPKGRATLVREWLRLLADRGVDPLKLEQELPESGVSLRTLIARTRNSWHANKGEYDFSHEVKEAMSGCLACKACSTQCPIKIDVPEFRSRFLQLYHTRYLRPLRDHLVATVESYAPLMARAPKTFNFFINQPLVRKLSEKHIGMVDLPLLSVPSLQQQMVGHRSANMTLEQLESLNAEQKARTVLVVQDPFTSYYDAQVVADFVRLVEKLGFQPVLLPFSPNGKAQHIKGFLNRFAKTAKKTADFLNRMAKLGMPMVGVDPALVLCYRDEYKLALGEERGEFNVLLANEWLASALESQPVATVSGESWYFFGHCTEVTALPGAPAQWAAIFARFGAKLENVSVGCCGMAGTYGHEAKNHENSLGIYELSWHQAMQRLPRNRCLATGYSCRSQVKRVEGTGVRHPVQALLEIIK,5.93 ± 0.31 h,5.92 ± 0.38 h,6.06 ± 0.28 h,6.07 ± 0.22 h,5.58 ± 0.1 h,2.92 ± 0.41 h,5.76 ± 0.42 h,11.1 ± 0.65 h,5.75 ± 0.096 h,5.88 ± 0.11 h,11.6 ± 0.3 h,12.3 ± 0.23 h
